Source: patent US20220251222A1 (Johns Hopkins, published 2022)

T1: IL-6R on IL-6-responsive HepG2 cells (UniProt P08887 20-468, limits assumed)
T1 sequence (looked up): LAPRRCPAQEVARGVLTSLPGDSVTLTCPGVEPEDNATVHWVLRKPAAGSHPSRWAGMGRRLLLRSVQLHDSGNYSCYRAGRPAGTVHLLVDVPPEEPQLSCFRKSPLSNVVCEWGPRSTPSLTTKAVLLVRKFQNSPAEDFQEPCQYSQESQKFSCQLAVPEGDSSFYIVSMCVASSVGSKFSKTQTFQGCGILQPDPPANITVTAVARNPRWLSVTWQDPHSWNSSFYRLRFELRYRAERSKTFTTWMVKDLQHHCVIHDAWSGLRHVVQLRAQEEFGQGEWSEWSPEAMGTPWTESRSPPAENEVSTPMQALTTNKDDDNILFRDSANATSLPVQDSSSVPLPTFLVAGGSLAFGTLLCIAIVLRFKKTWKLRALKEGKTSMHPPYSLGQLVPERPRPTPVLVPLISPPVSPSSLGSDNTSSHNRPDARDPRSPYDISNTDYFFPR

T2: human IL-6Rα extracellular domain (ECD), residues 89-303 of the mature protein, with C-terminal biotin … (human, UniProt P08887 108-322, biotinylated with BirA ligase on the biotin acceptor peptide)
T2 construct: range 89-303; The range 89-303 counts on the mature protein, not on the precursor; Any linkers between the ECD, BAP and His tag are not described; also called IL-6Rα ECD; recombinant IL-6Rα
T2 sequence: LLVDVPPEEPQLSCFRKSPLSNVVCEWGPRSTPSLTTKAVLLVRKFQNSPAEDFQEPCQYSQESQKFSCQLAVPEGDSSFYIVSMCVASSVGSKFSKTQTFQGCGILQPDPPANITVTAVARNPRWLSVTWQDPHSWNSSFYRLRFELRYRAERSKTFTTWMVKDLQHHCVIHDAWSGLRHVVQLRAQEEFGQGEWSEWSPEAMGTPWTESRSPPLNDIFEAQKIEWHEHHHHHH

T3: IL-6Rα expressed on lentivirally transduced HEK 293T cells (UniProt P08887 20-468, limits assumed)
T3 construct: whole, on cells; also called IL-6Rα^+ cells; IL-6Rα^+/IL-8R^- HEK 293T cells
T3 sequence (looked up): T1 sequence (looked up)

B1: BS2 bispecific antibody (scFv-IgG fusion: 10H2 IgG with tocilizumab scFv on the light chains) (bispecific antibody)
heavy: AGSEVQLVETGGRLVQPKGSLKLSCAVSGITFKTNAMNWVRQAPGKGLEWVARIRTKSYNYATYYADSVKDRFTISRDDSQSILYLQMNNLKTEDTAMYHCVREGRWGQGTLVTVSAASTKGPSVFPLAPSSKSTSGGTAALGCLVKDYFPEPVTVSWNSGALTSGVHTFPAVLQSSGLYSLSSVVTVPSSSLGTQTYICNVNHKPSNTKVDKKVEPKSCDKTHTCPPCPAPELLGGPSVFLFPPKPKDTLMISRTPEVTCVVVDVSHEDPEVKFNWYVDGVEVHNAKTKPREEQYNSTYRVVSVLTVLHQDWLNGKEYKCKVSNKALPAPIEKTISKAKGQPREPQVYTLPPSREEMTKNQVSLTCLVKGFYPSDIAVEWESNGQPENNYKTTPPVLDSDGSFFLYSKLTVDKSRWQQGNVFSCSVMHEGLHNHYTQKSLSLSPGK
light: AGSQAVVTQESALTTSPGETVTLTCRSSTGAVTTSNYANWVQEKPDHLFTGLIGGTNNRPPGVPARFSGSLIGDKAALTITGAQIEDEAIYFCALWYSNHLVFGGGTKLTVLRTVAAPSVFIFPPSDEQLKSGTASVVCLLNNFYPREAKVQWKVDNALQSGNSQESVTEQDSKDSTYSLSSTLTLSKADYEKHKVYACEVTHQGLSSPVTKSFNRGECGGGGSGGGGSEVQLQESGPGLVRPSQTLSLTCTVSGYSITSDHAWSWVRQPPGRGLEWIGYISYSGITTYNPSLKSRVTMLRDTSKNQFSLRLSSVTAADTAVYYCARSLARTTAMDYWGQGSLVTVSSGGGGSGGGGSGGGGSDIQMTQSPSSLSASVGDRVTITCRASQDISSYLNWYQQKPGKAPKLLIYYTSRLHSGVPSRFSGSGSGTDFTFTISSLQPEDIATYYCQQGNTLPYTFGQGTKVEIK
notes: Human IgG1-based
B2: tocilizumab, recombinant monoclonal hIgG1 (anti-IL-6Rα) (antibody, V domains shown)
VH: EVQLQESGPGLVRPSQTLSLTCTVSGYSITSDHAWSWVRQPPGRGLEWIGYISYSGITTYNPSLKSRVTMLRDTSKNQFSLRLSSVTAADTAVYYCARSLARTTAMDYWGQGSLVTVSS
VL: DIQMTQSPSSLSASVGDRVTITCRASQDISSYLNWYQQKPGKAPKLLIYYTSRLHSGVPSRFSGSGSGTDFTFTISSLQPEDIATYYCQQGNTLPYTFGQGTKVEIK
notes: also called anti-IL-6Rα antibody

Assays:
[1] = target: T1, IL-6R on IL-6-responsive HepG2 cells; assay: cell-based or functional assay
[2] = target: T2, human IL-6Rα extracellular domain …; assay: competition: antibody against 300 nM biotinylated IL-6Rα ECD binding to IL-6-displaying yeast, flow cytometry
Protocol: Approximately 1×10⁵ human IL-6-displaying yeast per well were plated in a 96-well plate and washed with PBSA. Yeast cells were incubated with saturating concentrations of biotinylated human IL-6Rα (300 nM) and serial dilutions of unlabeled competitor antibody (either the anti-IL-6R antibody tocilizumab, the anti-IL-8R antibody 10H2, BS1, or BS2) in PBSA for 2 hours at room temperature. Cells were then washed and stained with a 1:200 dilution of Alexa647-conjugated streptavidin (Thermo) in PBSA for 15 min at 4° C. Cells were washed again and assessed for human IL-6Rα binding on a CytoFLEX flow cytometer (Beckman Coulter). Background-subtracted fluorescent signal as a fraction of receptor subunit binding in the absence of competitor antibody was plotted. Curves were fitted to a first order logistic model and half maximal inhibitory concentrations (IC₅₀s) were computed using GraphPad Prism. Assays were performed in triplicate and repeated two times with consistent results.
Tocilizumab is known to compete with IL-6 for IL-6Rα engagement. Thus, bispecific binding agents containing the tocilizumab variable regions (BS1 and BS2) were also expected to obstruct cytokine binding. […] However, tocilizumab (IC₅₀=59 nM), BS1 (IC₅₀=190 nM), and BS2 (IC₅₀=78 nM) all inhibited IL-6/IL-6Rα binding.

[3] = target: T3, IL-6Rα expressed on lentivirally …; assay: competition with 100 nM biotinylated IL-6 on IL-6Rα+/IL-8R- HEK 293T cells, flow cytometry
Protocol: IL-6Rα⁺/IL-8R⁻ and IL-6Rα⁻/IL-8R⁺ HEK 293T cells were cultured as previously described, and were trypsinized, resuspended in PBSA, and aliquoted into 96-well plates (2×10⁵ cells per well). IL-6Rα⁺/IL-8R⁻ 293T cells were incubated with titrations of various monoclonal or bispecific antibodies in the presence of saturating concentration of biotinylated IL-6 (100 nM) (Acro Biosystem, cat #: IL6-H8218-25UG) for 2 hr at 4° C. with rotation. Cells were then washed and incubated with 1:200 dilution of Alexa Fluor 647-conjugated streptavidin (Fisher Scientific, cat #: S21374) in PBSA for 15 min at 4° C. After a final wash, cells were resuspended in PBSA and analyzed on a CytoFLEX flow cytometer (Beckman Coulter). Curves were fitted to a first-order logistic model and IC₅₀ values were calculated using GraphPad Prism data analysis software. Mean fluorescence intensity (MFI) of unstimulated cells was subtracted. Similarly, IL-6Rα⁻/IL-8R⁺ 293T cells were incubated with titrations of various monoclonal or bispecific antibodies with saturating concentration of His-tagged IL-8 (400 nM) (Sino Biological, cat #: 10098-H08Y-100) for 2 hr at 4° C. with rotation. […] After a final wash, cells were resuspended in PBSA and analyzed on a CytoFLEX flow cytometer (Beckman Coulter). Curves were fitted to a first-order logistic model and IC₅₀ values were calculated using GraphPad Prism data analysis software. […]

Binder | inhibition of IL-6-induced STAT3 phosphorylation in HepG2 cells (IC50) [1] [nM] | IC50 [2] [nM] | IC50 [3] [nM] | inhibition of IL-6 signaling (pSTAT3) in HepG2 cells (IC50) [1] [nM]
B1 | 220 | 78 | 96 | –
B2 | – | 59 | 30 | 76
